These results are taken from patent US20170322229A1, “HIGH AFFINITY VITAMIN D3 BINDING PROTEINS” (UNIVERSITY OF WASHINGTON, priority 2015, published 2017).

Experiment [1] can be described thus: Fluorescence polarization binding of 25-D3. The note with it: read-out: Approximate Kd. (In general: Polarisation of emitted light reports the rotation of a fluorescent probe.)
Experiment [2] in a line: Yeast surface display and flow cytometry binding/titration against 25-D3. The note with it: for Kd: yeast surface display, 25-D3. The text has this: We discovered another binder for 25-D3, referred to here as CDL2. […] It was further evolved to investigate and improve its specificity and affinity. To test a broader number of mutants, CDL2 was optimized using ep-PCR as well as small computationally guided library. The computationally guided library was constructed by docking the ligand into the binding site and optimizing the interactions between 25-D3 and the protein using ROSETTA®. To increase the sampling of the ligand, short MD simulations were performed to make small perturbations of the backbone. These computational variants, as well as variants generated via error prone mutagenesis, were expressed on yeast and sorted via fluorescence activated cell sorting. Individual designs sequenced from various rounds of mutagenesis and sorting were sequenced during the evolution to inform further design and mutagenesis strategies. One evolved variant, CDL2.1, incorporated 10 mutations scattered around the protein. Another evolved variant CDL2.2 is the most advanced variant from the directed evolution efforts.
(§1) Binding activity yeast surface display and flow cytometry, according to methods previously described by Wittrup et al.

Experiment [3] is described as follows: Yeast surface display and flow cytometry titration against vitamin D3. Type of experiment: binding. The note with it: for specificity for 25-D3 over vitamin D3: preference for 25-D3 over non-hydroxylated vitamin D3.
Text: as §1

Experiment [4] in a line: Approximate Kd summary (Table 4) / measured binder ranking, method not stated. The note with it: Ligand Target 25-hydroxycholecalciferol. It counts as binding.

The Kd is a measure of binding affinity in units of concentration.

B1: CDL2.2: slightly truncated from HH35.v1/CDL2.1; most advanced variant from the directed evolution efforts (protein)
chain: QSAKEAIEAALADFVKVYNSKDAAGVASKYMDDAAIFPLDMAPVDGRQNIQKLWQGLMDMGVSEPKFTTLNVQKSGDFAFESGSFSLKGPGKDSKLVGIAGIYVEVWRKGQDGGWKLYRTIANLGP
Turning to B1, the Kd in experiment [1] was around 188 nM.

B2: CDL1: designed 25-D3 binder based on scaffold PDB ID 1Z1S, a putative isomerase; 8 mutations from 1Z1S (protein)
chain: SGREQGHMNAKEILVHALRLVENGDARGFCDLFHPEGVMEFPYAPPGYKTRFEGRETIWAHMRLFPEHLTIRFTDVQFYETADPDLAIGEFHGDGVATVSGGKLAQDFISVLRTRDGQILLSRIFWNPLRHLEALGGVEAAAKIVQGA
In the case of B2, the results for the Kd in experiment [2] (read-out: Kd) and in experiment [4] were around 2000 nM and 1300 nM, respectively. The “specificity for 25-D3 over vitamin D3” value in experiment [3] is reported as “did not show a significant preference”.

B3: CDL2.1: evolved variant of CDL2 incorporating 10 mutations scattered around the protein (protein)
chain: DQSAKEAIEAALADFVKVYNSKDAAGVASKYMDDAAIFPLDMAPVDGRQNIQKLWQGLMDMGVSEPKFTTLNVQKSGDFAFESGSFSLKGPGKDSKLVDIAGIYVEVWRKGQDGGWKLYRTIANLDPAK
For B3, the Kd was around 319 nM in experiment [2] (read-out: Approximate Kd); around 1900 nM in experiment [3] (yeast surface display, vitamin D3, read-out: Approximate Kd); 319 nM in experiment [4].

B4: CDL2: designed 25-D3 binding protein based on scaffold PDB ID 3HX8, a putative ketosteroid isomerase (protein)
chain: GQSAKEAIEAALADFVKAYNSKDAAGVASKYMDDAAIFPLDMARVDGRQNIQKLWQGLMDMGVSELKLTTLDVQESGDFAFESGSFSLKGPGKDSKLVDVAGKYVVVWRKGQDGGWKLYRTISNLDPAK
As for B4, the Kd is around 2100 nM in experiment [1] and 2100 nM in experiment [4]. The “binding signal for 25-D3 on yeast” value in experiment [2] (yeast display and flow cytometry, biotinylated 25-D3) is listed as “exceptionally strong signal”.

B5: CDL1.1: evolved variant of CDL1 with mutations P46S, R55A, H68P, G136V; truncated as well as mutated from 6234 (protein)
chain: NLYFQGHMNAKEILVHALRLVENGDARGFCDLFHPEGVMEFPYAPSGYKTRFEGAETIWAHMRLFPEPLTIRFTDVQFYETADPDLAIGEFHGDGVATVSGGKLAQDFISVLRTRDGQILLSRIFWNPLRHLEALV
Regarding B5, the Kd was around 229 nM in experiment [2] (read-out: Approximate Kd) and 229 nM in experiment [4]. The “specificity for 25-D3 over vitamin D3” value in experiment [3] is listed as “about two fold over CDL1”.
